Assay results as given in article PMC10943695, “Neutrophil elastase as a versatile cleavage enzyme for activation of αvβ3 integrin-targeted small molecule drug conjugates with different payload classes in the tumor microenvironment” (Frontiers in Pharmacology, 2024).
Entries after “also recorded” stand apart in the source; their conditions may differ. Where two headings read alike, the source gives them in different places.

Tests used:
[1] = Stability in human plasma; format: in vitro ADME; conditions: 37 °C
[2] = Hydrolytic stability in PBS buffer at pH 7.4; format: physicochemical; conditions: PBS pH 7.4, 37 °C, 24 h
Description: For hydrolytic stability measurement, compounds 2, 3, 4, 5 and 6 (0.15 mg) were dissolved in acetonitrile/DMSO (4:1, 0.5 mL) and 1 mL of PBS buffer at pH 7.4 was then added. The sample solution was analyzed by HPLC to determine the amount of the test compound and the formation of degradation products over a period of 24 h at 37 °C.

HT-29 (human CRC) cells = test: In vitro cytotoxicity, MTT assay, in absence or presence of neutrophil elastase; format: cell-based; conditions: 72 h exposure
Description: (§1) 786-O (human RCC), HT-29 (human CRC), NCI-H292 (human NSCLC), NCI-H69 (human SCLC), MX-1 (human TNBC), and SUM149PT (human IBC) cells were acquired from ATCC and cultured according to the provider’s instructions.
(§2) The in vitro cytotoxicity of the SMDCs in comparison to the respective payloads was tested in a panel of cancer cell lines after a 72 h continuous exposure in presence or absence of 20 nM neutrophil elastase using MTT assays (ATCC). IC50 values were determined as the concentration of compound required for 50% inhibition of cell viability.

786-O (human RCC) cells = test: as above; format: cell-based; conditions: 72 h exposure
Description: as §1, §2

[3] = tested on: SUM149PT (human IBC) cells; test: as above; format: cell-based; conditions: 72 h exposure
Description: as §1, §2

[4] = tested on: NCI-H292 (human NSCLC) cells; test: as above; format: cell-based; conditions: 72 h exposure
Description: as §1, §2

Stability in rat plasma = format: in vitro ADME; conditions: 37 °C
Description: The SMDC compounds 2, 3, 4, 5 and 6 (1 mg) were dissolved in acetonitrile/DMSO (1:1, 0.5 mL). While vortexing, 20 µL of this solution was added to 1 mL rat plasma at 37 °C. The incubation was stopped at respective time intervals by adding acetonitrile/buffer pH 3 (80:20) and the test compounds and formation of degradation products were analyzed by LC and LC/MS.

NCI H69 SCLC xenograft = test: In vivo efficacy in NCI H69 SCLC xenograft model; set-up: species or system mice; conditions: for Body weight changes: NCI H69 model, QWx2 (4: 5 mg/kg; 6: 40 mg/kg)
Description: For the NCI H69 study, immunocompromised mice were inoculated subcutaneously with 1.3 × 10^6 NCI H69 cells in 50% Matrigel/50% Media on day 0. Treatment was started at a mean tumor area in the range of […] in the NCI H69 model (n = 8/group, compound 4 at 5 mg/kg i. v., QW, and compound 6 at 40 mg/kg i. v., QW). In an independent experiment in the same CDX xenograft model compound 3 was tested at 10 mg/kg i. v., QW.

[5] = Intravenous pharmacokinetics in rat; format: in vivo; conditions: male Wistar rats, 0.5 mg/kg SMDC i.v., plasma; for AUC(0-inf) / half-life / clearance / Vd: rat, iv; for clearance: read-out: CLp; for Vd: read-out: Vss
Description: Pharmacokinetic properties of SMDCs and their respective payloads were characterized in rats. Briefly, male Wistar rats (n = 3) were given a 0.5 mg/kg dose of SMDC formulated in plasma/DMSO (99:1) intravenously (i.v.) via tail vein. Blood was collected at pre-dose, 2, 5, 15, 30, 45, 60 min, 2, 4, 7, 24 h post-dose and then processed to plasma. Plasma was frozen at < −20°C until sample analysis. Plasma samples were analyzed for concentrations of SMDCs and their respective released payloads by LC-MS/MS.
(§3) Pharmacokinetics of SMDCs and their respective payloads from in vivo studies were determined using mean concentration-time profiles. All pharmacokinetic parameters were calculated by non-compartmental methods as previously described ([Perrier and Gibaldi, 1982]).

[6] = biological target: T1, human neutrophil elastase (Homo sapiens, UniProt P08246); test: Human neutrophil elastase cleavability assay; format: biochemical; conditions: 5 µM SMDC, 20, 40, 60 nM NE, 1 h, 37°C
T1 sequence (P08246 30-267): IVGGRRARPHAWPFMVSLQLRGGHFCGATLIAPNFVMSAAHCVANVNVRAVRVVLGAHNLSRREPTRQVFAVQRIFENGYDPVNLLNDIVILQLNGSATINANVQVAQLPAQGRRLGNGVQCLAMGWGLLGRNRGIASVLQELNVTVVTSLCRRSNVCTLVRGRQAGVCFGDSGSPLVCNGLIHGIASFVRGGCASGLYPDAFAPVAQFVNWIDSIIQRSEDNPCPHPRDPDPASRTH
Description: For the NE cleavability assay, the SMDC test compound was added to buffer (150 mM NaCl, 10 mM CaCl2, 0.05% BSA) to a final concentration of 5 µM (0.5% DMSO). The reaction was started by adding different concentrations of human NE (0, 20, 40, 60 nM) to the reaction vials. After incubation for 1 h at 37°C, the enzymatic reaction was stopped by precipitation in 50% ACN. Subsequently, the samples were subjected to HPLC-MS analysis to determine the concentration of test compound and of its metabolite.

[7] = Plasma and tumor pharmacokinetics in NCI H69 tumor-bearing mice; format: in vivo; conditions: single dose Compound 3 10 mg/kg IV, analyte conjugate 3 or released payload 8
Description: In order to assess the selective concentration of payload to tumor tissue, the pharmacokinetic properties of the SMDC 3 and its payload 8, in plasma and tumor was also characterized in female NMRI nu/nu xenograft mice (Taconic M&B A/S) bearing NCI H69 human small cell lung cancer tumors. The mice were treated i. v. via the tail vein with a single dose of 3 at 10 mg/kg. Plasma and tumor samples were collected at 0.25, 1, 7, and 24 h after treatment (n = 2 mice/group at each time point) and were stored frozen at < −20°C until sample analysis. Concentrations of the SMDCs and their respective payloads were measured by LC-MS/MS.
as §3

[8] = with 20 nM neutrophil elastase, read-out: IC50 HT29 + neutrophil elastase
[9] = without neutrophil elastase, read-out: IC50 HT29
[10] = with 20 nM neutrophil elastase, read-out: IC50 786–0 + neutrophil elastase
[11] = without neutrophil elastase, read-out: IC50 786–0
[12] = with 20 nM neutrophil elastase, read-out: IC50 SUM149 PT + neutrophil elastase
[13] = without neutrophil elastase, read-out: IC50 SUM149PT
[14] = with 20 nM neutrophil elastase, read-out: IC50 NCI-H292 + neutrophil elastase
[15] = without neutrophil elastase, read-out: IC50 NCI-H292

Structure (SMILES) | Stability in human plasma [1] | Stability in buffer pH 7.4 [2] | IC50 (HT-29 (human CRC) cells; [8]) | IC50 (HT-29 (human CRC) cells; [9]) | IC50 (786-O (human RCC) cells; [10]) | IC50 (786-O (human RCC) cells; [11]) | IC50 [3, 12] | IC50 [3, 13] | IC50 [4, 14] | IC50 [4, 15] | Stability in rat plasma (Stability in rat plasma) | Body weight changes (NCI H69 SCLC xenograft) | AUC(0-inf) [5] | half-life [5] | clearance [5] | Vd [5] | Vss [5] | other results
CCCNC(=O)Nc1cccc(S(=O)(=O)Nc2cccc([C@@H](CC(=O)O)NC(=O)Nc3ccc(NC(=O)NCCOCCOCCOCCC(=O)N[C@@H](CC(=O)O)C(=O)N4CCC[C@H]4C(=O)N[C@H](C(=O)O[C@@H](c4ccccc4)[C@@H](C)NC(=O)[C@H](C)[C@@H](OC)[C@@H]4CCCN4C(=O)C[C@@H](OC)[C@H]([C@@H](C)CC)N(C)C(=O)[C@@H](NC(=O)[C@@H](NC)C(C)C)C(C)C)C(C)C)cc3)c2)c1 [Compound 4] | highly stable | highly stable | 0.43 nM | 78 nM | 6.6 nM | 660 nM | 0.51 nM | 50 nM | 0.35 nM | 71 nM | highly stable | very minor | 3.03 ± 0.11 µM·h | 138 ± 57 min | 1.47 ± 0.06 mL/min/kg | 0.157 ± 0.015 L/kg |  | 
CCCNC(=O)Nc1cccc(S(=O)(=O)Nc2cccc([C@@H](CC(=O)O)NC(=O)Nc3ccc(NC(=O)NCCOCCOCCOCCC(=O)N[C@@H](CC(=O)O)C(=O)N4CCC[C@H]4C(=O)N[C@H](C(=O)N[C@@H](CCN(C(=O)CO)[C@@H](c4cc(-c5cc(F)ccc5F)cn4Cc4ccccc4)C(C)(C)C)C(=O)NC)C(C)C)cc3)c2)c1 [Compound 6] | highly stable | Very small fractions of a degradation product; also recorded: highly stable | 1.7 nM |  | 8.7 nM |  | 0.6 nM |  | 1.3 nM |  | highly stable | very minor | 2.98 ± 0.25 µM·h | 26.5 ± 1.38 min | 1.69 ± 0.15 mL/min/kg | 0.0377 ± 0.005 L/kg | comparable to plasma volume | 
CCCNC(=O)Nc1cccc(S(=O)(=O)Nc2cccc([C@@H](CC(=O)O)NC(=O)Nc3ccc(NC(=O)NCCOCCOCCOCCC(=O)N[C@@H](CC(=O)O)C(=O)N4CCC[C@H]4C(=O)N[C@H](C(=O)N=S(C)(=O)Cc4cc5cc(c4)OC(C)CCOc4cc(F)ccc4-c4nc(ncc4F)N5)C(C)C)cc3)c2)c1 (stereo partly drawn) [Compound 3] | highly stable | highly stable | 1.9 nM | 990 nM | 3.1 nM | > 1000 nM | 1.2 nM | 770 nM | 4.5 nM | 880 nM | highly stable |  |  |  |  |  | comparable to plasma volume | Cleavage by human NE [6]: essentially completely cleaved; Tumor growth NCI H69 (NCI H69 SCLC xenograft; 10 mg/kg i.v. weekly, 3 treatment cycles): No significant inhibition; payload/parent AUC ratio ([5]; molar basis, 0.5 mg/kg): 0.307; AUC(0-inf) ([5]; in vivo): 0.801 ± 0.126 µM·h; half-life ([5]; in vivo): 14.4 ± 3 min; clearance ([5]; in vivo): 6.6 ± 0.95 mL/min/kg; Vd ([5]; in vivo): 0.0366 ± 0.0053 L/kg; AUC(0-t) ([7]; mouse, in vivo, plasma): 43 µM·h; Cmax ([7]; mouse, in vivo, plasma): 49 µM; tumor/plasma AUC ratio [7]: 0.126
